Among the data in PMC3852661, “Structural basis of SUFU–GLI interaction in human Hedgehog signalling regulation” (Acta Crystallographica Section D: Biological Crystallography, 2013) are Tm shift values, retold here.

Assay [1] has as its target T1, MBP-SUFU-Δ (Homo sapiens, UniProt Q9UMX1, DEL285-359/L360P/P281R/P282G/R280S/S279P).
T1 construct: subcloning different SUFU32–483 variants into vector pLJMBP4c; His tag (as in MBP-SUFU-FL; purified on HisTrap) (C); made in house; host or cells: Escherichia coli JM109 (DE3)
The experiment in a line: Thermal stability assay with peptide, MBP-SUFU-Δ. Format: binding. The note with it: 44 µM peptide, 2.2 µM protein, SYPRO Orange, 50 mM Na HEPES pH 7.0, 50 mM NaCl, 5 mM β-mercaptoethanol; triplicate. The method, then: (§1) Recombinant MBP-SUFU proteins were diluted to 2.6 μM in 50 mM Na HEPES pH 7.0, 50 mM NaCl, 5 mM β-mercaptoethanol; the peptides GLI1p and GLI1p-SH (Supplementary Table S1b), synthesized by Dr W. Mawby (University of Bristol), were dissolved in the same buffer. Proteins were spun at 14 000g for 20 min at 4°C before adding SYPRO Orange (Molecular Probes) to a final concentration of 6×. Reaction volumes of 25 μl were prepared in 96-well PCR plates with 2.2 μM protein/SYPRO Orange solution and, where applicable, 44 μM peptide. Plates were sealed with optical tape, heated from 20 to 90°C in 12 s 0.2°C steps in an iCycler and fluorescence was detected using an excitation wavelength of 470 nm and an emission wavelength of 570 nm. To determine whether the IDR affects the GLI-binding properties of SUFU, we used a human GLI1-derived peptide (GLI1p; residues 115-131; Supplementary Table S1b) containing the highly conserved SYGH motif important for interaction with SUFU (Dunaeva et al., 2003[▶]) in a thermal stability assay with MBP-SUFU-FL and MBP-SUFU-Δ (Fig. 4 ▶ a). The addition of GLI1p stabilized both proteins: T m for MBP-SUFU-FL was shifted by 4°C and that for MBP-SUFU-Δ was shifted by 3.6°C. […] The GLI1 dose dependency of this effect was confirmed in a separate experiment with increasing GLI1p concentrations (Supplementary Fig. […]).

Assay [2] concerns the target T2, MBP-SUFU-FL (Homo sapiens, UniProt Q9UMX1).
T2 construct: containing residues 32–483 of human SUFU and a C-terminal hexahistidine tag; hexahistidine tag (C); made in house; host or cells: Escherichia coli JM109 (DE3)
The experiment in a line: Thermal stability assay with peptide, MBP-SUFU-FL. It counts as binding. The note with it: 44 µM peptide, 2.2 µM protein, SYPRO Orange, 50 mM Na HEPES pH 7.0, 50 mM NaCl, 5 mM β-mercaptoethanol; triplicate. The method, then:
as §1

T2 sequence (Q9UMX1 32-483, other chains not shown): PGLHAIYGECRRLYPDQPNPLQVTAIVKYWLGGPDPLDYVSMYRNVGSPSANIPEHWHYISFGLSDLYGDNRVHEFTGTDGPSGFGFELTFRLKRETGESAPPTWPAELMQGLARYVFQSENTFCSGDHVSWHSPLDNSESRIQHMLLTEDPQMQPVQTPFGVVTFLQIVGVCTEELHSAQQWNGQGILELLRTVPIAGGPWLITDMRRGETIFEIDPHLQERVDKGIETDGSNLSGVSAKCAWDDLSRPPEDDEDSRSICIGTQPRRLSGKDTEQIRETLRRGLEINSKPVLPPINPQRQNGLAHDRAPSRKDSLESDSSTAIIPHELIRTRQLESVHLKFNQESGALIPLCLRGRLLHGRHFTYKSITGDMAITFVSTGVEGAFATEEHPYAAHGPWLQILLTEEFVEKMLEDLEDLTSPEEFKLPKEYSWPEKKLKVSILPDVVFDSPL
T1 sequence (Q9UMX1 with tags, fused parts or gaps S279P/R280S/P281R/P282G/DEL285-359/L360P limits assumed, other chains not shown): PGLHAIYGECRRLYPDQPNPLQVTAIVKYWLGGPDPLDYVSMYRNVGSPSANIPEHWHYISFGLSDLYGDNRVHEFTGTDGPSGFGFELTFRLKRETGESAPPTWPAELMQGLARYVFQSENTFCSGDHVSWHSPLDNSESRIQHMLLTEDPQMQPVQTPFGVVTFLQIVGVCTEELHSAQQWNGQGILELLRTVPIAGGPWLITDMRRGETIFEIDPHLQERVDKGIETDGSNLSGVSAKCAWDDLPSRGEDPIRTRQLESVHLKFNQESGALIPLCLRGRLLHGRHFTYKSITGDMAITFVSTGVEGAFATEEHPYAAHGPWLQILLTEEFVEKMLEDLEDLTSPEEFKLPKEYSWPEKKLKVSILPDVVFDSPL

In the case of “GLI1p: human GLI1-derived peptide; residues 115–131, containing the highly conserved SYGH motif (TSPGGSYGHLSIGTMSP)”, the Tm shift was found to be 3.6 °C in assay [1] and 4 °C in assay [2].
